Results: the supplement of paper PMC10724198
± gives the standard deviation of the averaged measurements.

How the values were obtained:
[1] = test system: Saccharomyces cerevisiae; test: protein stability index of tFT-peptide fusion (C-terminal peptide) (PSI (0-1 scale)); higher = more stable (slower turnover)
Method: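 MPS profiling in S. cerevisiae of the tFT-X12 degron library: putative degron peptides plus stable controls, 12 aa, fused to the C-terminus of a sfGFP-mCherry timer. Cells are FACS-sorted into 8 mCherry/sfGFP bins and deep-sequenced. PSI runs from 0 (unstable) to 1 (stable). Backgrounds are wild type, das1Δ and doa10Δ at 30 °C, and wild type, das1Δ, cdc34-1 and cdc53-1 at 37 °C; 2-3 technical replicates each.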

[2] = test system: Saccharomyces cerevisiae; test: as above; conditions: genetic background: wild type; temperature: 30 C
[3] = genetic background: cdc34-1, temperature: 37 C
[4] = genetic background: cdc53-1, temperature: 37 C
[5] = genetic background: das1 deletion, temperature: 30 C
[6] = genetic background: das1 deletion, temperature: 37 C
[7] = genetic background: doa10 deletion, temperature: 30 C
[8] = genetic background: wild type, temperature: 30 C
[9] = genetic background: wild type, temperature: 37 C
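Further: PSI is a weighted mean of sequencing reads over stability bins, variants kept only with over 10 reads, mCherry proximal and sfGFP distal, peptide attached via GGGS linker.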

Sequence	protein stability index [1, 3]	protein stability index [1, 4]	protein stability index [1, 5]	protein stability index [1, 6]	protein stability index [1, 7]	protein stability index [1, 8]	protein stability index [1, 9]	protein stability index [2]
GSGCLFNRWRIL	0.6956 ± 0.0048	0.7303 ± 0.0059	0.6487 ± 0.0063	0.733 ± 0.022	0.169 ± 0.034	0.196 ± 0.027	0.46 ± 0.0074	0.287 ± 0.045
GMGRVLVEVLLC	0.293 ± 0.0086	0.451 ± 0.036	0.317 ± 0.033	0.5187 ± 0.0023	0.0999 ± 0.0047	0.101 ± 0.021	0.0812 ± 0.017	0.165 ± 0.029
VSGVLRSMVRLQ	0.641 ± 0.044	0.7477 ± 0.0057	0.66 ± 0.034	0.736 ± 0.032	0.266 ± 0.017	0.324 ± 0.031	0.58 ± 0.03	0.453 ± 0.011
PYHAPRPPFSLF	0.511 ± 0.05	0.68 ± 0.0087	0.667 ± 0.021	0.7543 ± 0.0025	0.0708 ± 0.013	0.0545 ± 0.017	0.111 ± 0.04	0.149 ± 0.0084
GWIFFYFTWFVG	0.127 ± 0.018	0.236 ± 0.025	0.198 ± 0.028	0.319 ± 0.017	0.181 ± 0.029	0.172 ± 0.035	0.275 ± 0.0097	0.263 ± 0.022
RILSLQFILCKR	0.607 ± 0.025	0.649 ± 0.015	0.538 ± 0.024	0.64 ± 0.0078	0.407 ± 0.013	0.414 ± 0.043	0.546 ± 0.019	0.463 ± 0.0058
LEPFTGYTVIVM	0.165 ± 0.045	0.185 ± 0.015	0.232 ± 0.045	0.331 ± 0.021	0.189 ± 0.0054	0.236 ± 0.034	0.261 ± 0.032	0.334 ± 0.048
GLPGYAWGRSGG	0.6759 ± 0.0045	0.788 ± 0.02	0.743 ± 0.037	0.782 ± 0.012	0.776 ± 0.037	0.775 ± 0.029	0.7221 ± 0.0024	0.586 ± 0.22
AWLWCVCWSIMR	0.389 ± 0.017	0.414 ± 0.013	0.317 ± 0.034	0.502 ± 0.024	0.373 ± 0.028	0.323 ± 0.021	0.453 ± 0.0073	0.395 ± 0.025
LPSPLLFLPALF	0.708 ± 0.017	0.7877 ± 0.0075	0.667 ± 0.025	0.778 ± 0.055	0.405 ± 0.011	0.436 ± 0.011	0.614 ± 0.017	0.466 ± 0.014
CRRLCGWLFVCV	0.466 ± 0.024	0.522 ± 0.025	0.387 ± 0.037	0.548 ± 0.014	0.396 ± 0.0074	0.38 ± 0.025	0.513 ± 0.036	0.46 ± 0.0068
GLGVIFFLLGYG	0.469 ± 0.028	0.507 ± 0.023	0.336 ± 0.033	0.5631 ± 0.0018	0.292 ± 0.019	0.327 ± 0.016	0.551 ± 0.051	0.429 ± 0.015
VVRLRVWRLLKV	0.267 ± 0.022	0.33 ± 0.048	0.253 ± 0.03	0.42491 ± 4.8e-05	0.101 ± 0.034	0.161 ± 0.026	0.185 ± 0.016	0.225 ± 0.023
GWVSCCVWSFLV	0.243 ± 0.028	0.5924 ± 0.0053	0.531 ± 0.016	0.663 ± 0.0083	0.066 ± 0.012	0.066 ± 0.0087	0.063 ± 0.016	0.122 ± 0.015
RDRHFKIQTCIM	0.662 ± 0.016	0.721 ± 0.017	0.648 ± 0.02	0.717 ± 0.014	0.24 ± 0.017	0.246 ± 0.039	0.515 ± 0.035	0.388 ± 0.0046
FLFFLFVVFVFV	0.256 ± 0.041	0.35 ± 0.046	0.305 ± 0.022	0.379 ± 0.0046	0.323 ± 0.015	0.286 ± 0.013	0.3692 ± 0.0023	0.41 ± 0.07
FSRFPFVKLSLV	0.642 ± 0.059	0.731 ± 0.019	0.6201 ± 0.0056	0.70163 ± 0.00051	0.161 ± 0.0044	0.197 ± 0.048	0.306 ± 0.012	0.297 ± 0.016
VCLFRLVVFFPV	0.234 ± 0.039	0.335 ± 0.024	0.217 ± 0.021	0.426 ± 0.037	0.196 ± 0.02	0.222 ± 0.018	0.377 ± 0.014	0.349 ± 0.005
RLVIFITRYLIS	0.337 ± 0.043	0.488 ± 0.066	0.349 ± 0.044	0.562 ± 0.015	0.116 ± 0.03	0.162 ± 0.016	0.275 ± 0.0028	0.2581 ± 0.00054
CVGRPIALAVRT	0.52676 ± 0.0004	0.519 ± 0.048	0.375 ± 0.04	0.56 ± 0.0093	0.338 ± 0.025	0.38 ± 0.028	0.51959 ± 0.00012	0.511 ± 0.022
ARLTNYFVEWLS	0.667 ± 0.012	0.757 ± 0.012	0.657 ± 0.0066	0.746 ± 0.012	0.358 ± 0.023	0.383 ± 0.029	0.592 ± 0.012	0.4612 ± 0.00085
IFFSLFFFFLCN	0.353 ± 0.06	0.413 ± 0.0066	0.356 ± 0.027	0.526 ± 0.068	0.35 ± 0.03	0.289 ± 0.011	0.4212 ± 0.0014	0.35 ± 0.056
QDFFYCLLVATS	0.155 ± 0.0058	0.276 ± 0.015	0.21 ± 0.038	0.3605 ± 0.003	0.174 ± 0.0022	0.205 ± 0.03	0.305 ± 0.0038	0.317 ± 0.029
VLPLRCSWAAQG	0.693 ± 0.007	0.7521 ± 0.005	0.639 ± 0.026	0.747 ± 0.027	0.246 ± 0.019	0.298 ± 0.013	0.538 ± 0.044	0.39 ± 0.035
WWVVVRGGWCLC	0.336 ± 0.043	0.416 ± 0.014	0.286 ± 0.032	0.495 ± 0.009	0.1219 ± 0.0001	0.16 ± 0.0021	0.205 ± 0.0045	0.204 ± 0.011
FPTLVRKFINAI	0.448 ± 0.024	0.629 ± 0.052	0.56 ± 0.016	0.6825 ± 0.0019	0.0802 ± 0.011	0.0817 ± 0.014	0.123 ± 0.018	0.13 ± 0.0092
FCRLCYLLLFCC	0.37 ± 0.044	0.414 ± 0.012	0.404 ± 0.025	0.531 ± 0.022	0.211 ± 0.0056	0.196 ± 0.016	0.20208 ± 0.0002	0.254 ± 0.022
MSHVCICRRLML	0.68 ± 0.037	0.743 ± 0.016	0.609 ± 0.025	0.712 ± 0.032	0.404 ± 0.028	0.427 ± 0.0081	0.646 ± 0.048	0.498 ± 0.011
TVYMVIRVIVWG	0.129 ± 0.023	0.126 ± 0.046	0.141 ± 0.055	0.246 ± 0.0077	0.0909 ± 0.023	0.102 ± 0.032	0.154 ± 0.013	0.207 ± 0.027
GGGVGVAVVLFW	0.432 ± 0.024	0.501 ± 0.012	0.34 ± 0.027	0.53 ± 0.011	0.308 ± 0.011	0.342 ± 0.02	0.5056 ± 0.0016	0.417 ± 0.016
